Data reported in publication PMC6590076.

Molecular target: 14-3-3β (UniProt P31946)
Assay: in vitro pull-down, immobilized phosphoprotein

binding against the reference (reference: FOXO3A with Ser253 (supD tRNA), sites S253) | binding against the reference (reference: FOXO3A with Ser413 (supD tRNA), sites S413) | Substance
stronger |  | FOXO3A (from UniProt O43524) FOXO3A with pSer253 (SepOTSλ)
 | stronger | FOXO3A (from UniProt O43524) FOXO3A with pSer413 (SepOTSλ)
